Data taken from publication PMC8797470, “Disruption of the pentraxin 3/CD44 interaction as an efficient therapy for triple‐negative breast cancers” (Clinical and Translational Medicine, 2022).

Key:
MDA-MB-231 cells = test: Transwell migration and Matrigel invasion assays; type: cell-based, human; conditions: treatment in lower well, 18 h
Description: In migration assay, MDA‐MB‐231 cells seeded in 8.0 μm pore polycarbonate membrane inserts (BD Biosciences) in 24‐well plates. In Matrigel invasion assay, inserts were pre‐coated with an appropriate amount of Matrigel first, and the same number of cells seeded on the Matrigel. After cells adhered on the inserts, serum‐free DMEM medium added in the upper wells. Serum‐free medium containing the treatments of TGF‐β1, PTX3, PTX3NA, PTX3/N, PTX3/C, RI37, GI40, AD9, GR9, IgG1κ, PTX3 Ab‐10 or PTX3 Ab‐49 were then mixed into the lower wells of the 24‐well plates. After incubating for 18 h, cells outside the insert were removed by wiping. The inside the inserts were then stained by 4′,6‐diamidino‐2‐phenylindol (DAPI). Fluorescence microscope was used for counting the total number of migrated cells with 200× magnification. Different from the experimental design for the MDA‐MB‐231 cells, the migrated 4T1‐Luc2 cells in the inside of the insert were detected by luciferase activity.

CD44 = molecular target: T1, CD44 (Homo sapiens, UniProt P16070); test: Ligand binding ELISA on immobilised CD44; conditions: HRP-conjugated recombinant proteins; wells coated with 10 μg/ml CD44; 2 h; OD 450 nm
T1 construct: purchased Sino Biological Inc. 12211-H08H
Protocol: Plate wells (9018; Corning Costar) were coated with 10 μg/ml of CD44 (12211‐H08H; Sino Biological Inc.) in PBS (pH 7.2) and then blocking for 1 h with the blocking buffer including 3% milk in PBS. For the stability binding experiments, the PTX3‐devired biotinylated peptides were pre‐incubated in serum for 1, 2, 4 or 6 h. For the binding experiments, the horseradish peroxidase (HRP)‐conjugated recombinant PTX3, PTX3/N, PTX3/C and PTX3NA or PTX3‐devired biotinylated peptides AD9, GR9, P2rdAD9 and P12rdGR9 (32310; LEADGENE) was responded in the well for 2 h. For the peptide of competition experiments, the PTX3‐devired biotinylated peptides RI37 and GI40 were diluted at the indicated concentration in PBS. After 2 h, PBS washed three times and then incubated with 5 μg/ml HRP‐conjugated PTX3 in PBS for 1 h at room temperature (RT). For the antibody competition experiments, Ab‐10 and Ab‐49 were incubated with 5 μg/ml HRP‐conjugated PTX3 in PBS for 2 h at RT. After incubation, the mixtures was responded in the well for 1 h at RT and then PBS washed three times, tetramethyl benzidine (TMB) was used to detect the bound HRP conjugate. After 15 min, the peroxidase reaction was stopped by adding 0.1 M H2SO4. Next, ELISA plate reader was used to detect the optical densities at 450 nm.

T1 sequence (P16070 21-220 limits assumed): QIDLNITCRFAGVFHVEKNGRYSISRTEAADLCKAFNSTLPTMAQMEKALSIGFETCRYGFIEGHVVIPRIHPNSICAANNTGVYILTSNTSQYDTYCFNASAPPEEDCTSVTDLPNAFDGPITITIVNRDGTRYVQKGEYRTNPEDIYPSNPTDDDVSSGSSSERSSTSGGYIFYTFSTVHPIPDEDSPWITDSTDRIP

binding to immobilised CD44 (CD44): could bind
B1: PTX3/C: recombinant truncated mutant, C‐terminus of PTX3, amino acids 180–381 (protein)
chain: ETAILFPMRSKKIFGSVHPVRPMRLESFSACIWVKATDVLNKTILFSYGTKRNPYEIQLYLSYQSIVFVVGGEENKLVAEAMVSLGRWTHLCGTWNSEEGLTSLWVNGELAATTVEMATGHIVPEGGILQIGQEKNGCCVGGGFDETLAFSGRLTGFNIWDSVLSNEEIRETGGAESCHIRGNIVGWGVTEIQPHGGAQYVS
modifications: left off: HRP conjugate, end not stated, kept
migration and invasion, protein alone (MDA-MB-231 cells): mimics PTX3 to induce
